Test results as given in patent US9211312 (VOLUTION IMMUNO PHARMACEUTICALS, dated 2015).

Columns and labels:
complement C5 = target: T1, complement C5 (Homo sapiens (Human), UniProt P01031 19-673; P01031 678-1676, The beta and alpha chains of native C5 are linked by a disulfide bond. The native protein is glycosylated.); assay: direct binding to C5 (FIG. 4C); method not described
T1 construct: also called complement protein C5

[1] = target: human complement C5 (in human serum) (human, UniProt P01031 19-1676); assay: cell-based or functional assay
Sequence of human complement C5 (in human serum) (P01031 19-1676 limits assumed): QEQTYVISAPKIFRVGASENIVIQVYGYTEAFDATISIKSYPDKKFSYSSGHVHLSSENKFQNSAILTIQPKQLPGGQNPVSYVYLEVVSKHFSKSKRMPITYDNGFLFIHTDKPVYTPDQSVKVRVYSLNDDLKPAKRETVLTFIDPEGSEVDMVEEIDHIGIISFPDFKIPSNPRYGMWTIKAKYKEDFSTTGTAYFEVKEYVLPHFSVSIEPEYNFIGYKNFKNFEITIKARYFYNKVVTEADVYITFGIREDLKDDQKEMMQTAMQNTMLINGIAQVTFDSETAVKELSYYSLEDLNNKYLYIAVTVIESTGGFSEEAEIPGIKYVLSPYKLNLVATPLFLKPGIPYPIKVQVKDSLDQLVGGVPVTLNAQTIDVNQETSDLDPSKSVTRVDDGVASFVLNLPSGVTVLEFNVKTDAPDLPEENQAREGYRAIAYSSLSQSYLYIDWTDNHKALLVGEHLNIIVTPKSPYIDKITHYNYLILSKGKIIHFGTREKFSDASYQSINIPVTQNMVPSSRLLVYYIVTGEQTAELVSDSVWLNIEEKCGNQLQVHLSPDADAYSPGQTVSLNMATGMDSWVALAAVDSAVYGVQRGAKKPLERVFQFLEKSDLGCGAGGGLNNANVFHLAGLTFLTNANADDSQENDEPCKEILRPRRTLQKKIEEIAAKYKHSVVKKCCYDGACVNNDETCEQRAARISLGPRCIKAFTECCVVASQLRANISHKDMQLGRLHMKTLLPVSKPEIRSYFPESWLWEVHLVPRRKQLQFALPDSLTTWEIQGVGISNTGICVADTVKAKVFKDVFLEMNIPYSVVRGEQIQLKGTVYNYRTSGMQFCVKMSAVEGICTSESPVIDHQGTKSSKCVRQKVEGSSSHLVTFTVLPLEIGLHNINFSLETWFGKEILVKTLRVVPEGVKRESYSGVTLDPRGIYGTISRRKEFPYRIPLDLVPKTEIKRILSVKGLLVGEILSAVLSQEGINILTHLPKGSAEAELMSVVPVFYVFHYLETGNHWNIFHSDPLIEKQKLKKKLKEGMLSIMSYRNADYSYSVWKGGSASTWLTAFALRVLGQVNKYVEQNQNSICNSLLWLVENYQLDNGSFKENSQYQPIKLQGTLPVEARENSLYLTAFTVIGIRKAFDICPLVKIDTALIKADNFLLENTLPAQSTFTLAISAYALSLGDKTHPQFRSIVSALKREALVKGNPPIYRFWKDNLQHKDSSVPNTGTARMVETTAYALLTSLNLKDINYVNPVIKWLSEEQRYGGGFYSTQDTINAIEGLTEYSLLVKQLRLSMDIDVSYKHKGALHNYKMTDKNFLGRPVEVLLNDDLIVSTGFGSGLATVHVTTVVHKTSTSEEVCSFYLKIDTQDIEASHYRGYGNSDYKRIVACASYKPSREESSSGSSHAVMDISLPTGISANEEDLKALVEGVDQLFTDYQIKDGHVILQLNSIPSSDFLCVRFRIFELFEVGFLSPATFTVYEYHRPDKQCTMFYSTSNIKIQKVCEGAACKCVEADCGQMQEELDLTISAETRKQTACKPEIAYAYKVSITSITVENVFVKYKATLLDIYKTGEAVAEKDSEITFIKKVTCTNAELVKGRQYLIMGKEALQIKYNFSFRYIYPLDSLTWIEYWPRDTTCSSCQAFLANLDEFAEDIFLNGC

[2] = target: mouse complement C5 (in mouse serum) (mouse, UniProt P06684 19-1680); assay: cell-based or functional assay
Sequence of mouse complement C5 (in mouse serum) (P06684 19-1680 limits assumed): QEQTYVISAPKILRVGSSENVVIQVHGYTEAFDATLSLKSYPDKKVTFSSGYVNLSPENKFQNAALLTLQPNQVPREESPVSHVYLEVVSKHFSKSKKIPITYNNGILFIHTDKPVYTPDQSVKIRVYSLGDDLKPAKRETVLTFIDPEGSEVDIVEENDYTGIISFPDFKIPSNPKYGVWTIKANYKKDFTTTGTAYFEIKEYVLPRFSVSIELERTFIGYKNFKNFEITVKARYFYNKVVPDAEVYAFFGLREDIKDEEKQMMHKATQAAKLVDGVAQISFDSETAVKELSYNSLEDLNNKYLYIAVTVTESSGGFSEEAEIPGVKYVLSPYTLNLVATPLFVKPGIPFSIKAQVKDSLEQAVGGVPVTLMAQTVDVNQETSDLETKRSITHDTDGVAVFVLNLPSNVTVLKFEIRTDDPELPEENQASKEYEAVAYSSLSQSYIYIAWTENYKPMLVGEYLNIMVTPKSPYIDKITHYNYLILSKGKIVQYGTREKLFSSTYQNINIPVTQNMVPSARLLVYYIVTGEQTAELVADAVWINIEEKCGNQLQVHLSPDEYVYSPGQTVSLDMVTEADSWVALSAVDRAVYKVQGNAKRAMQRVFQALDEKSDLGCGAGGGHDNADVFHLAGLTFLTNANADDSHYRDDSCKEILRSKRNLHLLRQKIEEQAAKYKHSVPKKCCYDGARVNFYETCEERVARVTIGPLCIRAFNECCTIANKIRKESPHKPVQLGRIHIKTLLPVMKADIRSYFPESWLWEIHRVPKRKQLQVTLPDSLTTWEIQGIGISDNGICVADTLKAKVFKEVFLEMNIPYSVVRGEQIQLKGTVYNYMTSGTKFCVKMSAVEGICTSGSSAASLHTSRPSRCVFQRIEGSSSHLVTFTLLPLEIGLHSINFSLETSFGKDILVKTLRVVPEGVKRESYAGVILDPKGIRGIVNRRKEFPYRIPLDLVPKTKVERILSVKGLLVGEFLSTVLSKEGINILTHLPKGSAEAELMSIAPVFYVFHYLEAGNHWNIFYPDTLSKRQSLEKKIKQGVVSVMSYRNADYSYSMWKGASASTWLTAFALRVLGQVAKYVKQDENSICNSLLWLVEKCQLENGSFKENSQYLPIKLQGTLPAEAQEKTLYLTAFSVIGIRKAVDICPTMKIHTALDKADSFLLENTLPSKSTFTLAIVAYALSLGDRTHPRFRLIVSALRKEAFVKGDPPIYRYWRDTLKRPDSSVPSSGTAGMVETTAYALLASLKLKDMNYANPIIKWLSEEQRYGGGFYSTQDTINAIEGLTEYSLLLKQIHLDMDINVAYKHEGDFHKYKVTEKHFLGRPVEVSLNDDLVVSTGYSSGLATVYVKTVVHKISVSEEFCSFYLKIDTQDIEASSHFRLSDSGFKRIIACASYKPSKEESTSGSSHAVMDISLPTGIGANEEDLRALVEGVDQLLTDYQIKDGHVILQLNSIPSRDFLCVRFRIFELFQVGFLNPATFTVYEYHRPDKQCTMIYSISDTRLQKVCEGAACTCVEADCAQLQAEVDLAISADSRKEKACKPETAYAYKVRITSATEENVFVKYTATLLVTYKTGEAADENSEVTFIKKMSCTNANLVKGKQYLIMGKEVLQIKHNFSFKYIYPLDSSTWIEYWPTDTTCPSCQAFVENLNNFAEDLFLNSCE

[3] = target: rat complement C5 (in rat serum) (rat, UniProt P08650 19-1681); assay: cell-based or functional assay

T1 sequence (P01031 19-673 limits assumed, form in doubt, chain 1 of 2): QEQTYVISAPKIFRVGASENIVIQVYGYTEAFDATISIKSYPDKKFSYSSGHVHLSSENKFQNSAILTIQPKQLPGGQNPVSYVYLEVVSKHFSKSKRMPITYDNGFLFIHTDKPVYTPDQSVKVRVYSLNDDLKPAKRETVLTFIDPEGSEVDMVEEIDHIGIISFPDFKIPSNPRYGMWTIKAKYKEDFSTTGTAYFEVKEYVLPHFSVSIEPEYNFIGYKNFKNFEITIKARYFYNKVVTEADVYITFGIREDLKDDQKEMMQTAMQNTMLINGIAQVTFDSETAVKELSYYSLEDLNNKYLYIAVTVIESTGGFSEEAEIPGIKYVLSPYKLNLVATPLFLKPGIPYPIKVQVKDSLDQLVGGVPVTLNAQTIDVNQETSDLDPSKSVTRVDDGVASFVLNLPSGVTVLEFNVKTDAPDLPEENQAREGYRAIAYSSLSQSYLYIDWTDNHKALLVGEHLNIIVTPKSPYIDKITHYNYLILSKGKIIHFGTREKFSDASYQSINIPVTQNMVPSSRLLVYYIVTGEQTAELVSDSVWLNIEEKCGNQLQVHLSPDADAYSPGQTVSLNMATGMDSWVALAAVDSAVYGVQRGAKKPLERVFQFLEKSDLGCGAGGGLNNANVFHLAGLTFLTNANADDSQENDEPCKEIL
T1 sequence (P01031 678-1676 limits assumed, form in doubt, chain 2 of 2): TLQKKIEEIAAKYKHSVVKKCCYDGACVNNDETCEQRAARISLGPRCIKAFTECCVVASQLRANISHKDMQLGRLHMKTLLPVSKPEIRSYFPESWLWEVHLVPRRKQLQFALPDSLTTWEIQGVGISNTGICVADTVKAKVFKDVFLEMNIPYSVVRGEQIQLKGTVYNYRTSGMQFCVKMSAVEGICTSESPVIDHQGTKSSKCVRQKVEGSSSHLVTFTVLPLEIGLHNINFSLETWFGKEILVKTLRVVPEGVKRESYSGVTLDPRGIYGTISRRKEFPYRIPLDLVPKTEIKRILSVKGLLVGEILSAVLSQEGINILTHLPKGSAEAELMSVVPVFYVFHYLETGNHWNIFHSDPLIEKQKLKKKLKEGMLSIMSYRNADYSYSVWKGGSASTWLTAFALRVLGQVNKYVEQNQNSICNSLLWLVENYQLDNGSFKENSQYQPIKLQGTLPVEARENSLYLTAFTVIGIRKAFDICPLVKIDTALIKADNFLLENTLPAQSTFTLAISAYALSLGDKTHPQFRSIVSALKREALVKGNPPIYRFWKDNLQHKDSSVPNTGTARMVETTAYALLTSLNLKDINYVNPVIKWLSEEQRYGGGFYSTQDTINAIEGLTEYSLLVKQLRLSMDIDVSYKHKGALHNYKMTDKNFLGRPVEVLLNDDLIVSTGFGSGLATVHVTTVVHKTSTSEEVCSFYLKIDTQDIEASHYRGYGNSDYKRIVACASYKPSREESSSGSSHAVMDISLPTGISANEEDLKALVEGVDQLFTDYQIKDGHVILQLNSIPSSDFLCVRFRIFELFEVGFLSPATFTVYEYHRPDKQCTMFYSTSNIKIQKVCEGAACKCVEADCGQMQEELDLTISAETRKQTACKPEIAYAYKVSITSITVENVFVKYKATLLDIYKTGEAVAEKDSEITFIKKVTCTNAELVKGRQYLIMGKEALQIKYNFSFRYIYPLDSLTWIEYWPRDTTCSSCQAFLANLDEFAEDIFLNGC

B1: EV576 protein, native, purified from salivary gland extracts of the soft tick Ornithodoros moubata (other)
chain: DSESDCTGSEPVDAFQAFSEGKEAYVLVRSTDPKARDCLKGEPAGEKQDNTLPVMMTFKNGTDWASTDWTFTLDGAKVTATLGNLTQNREVVYDSQSHHCHVDKVEKEVPDYEMWMLDAGGLEVEVECCRQKLEELASGRNQMYPHLKDC
~20 µg/mL: IC50 (complement C5) | IC50, binding of C5 and prevention of its cleavage by C5 convertase in serum [1] | IC50, binding of C5 and prevention of its cleavage by C5 convertase in serum [2] | IC50, binding of C5 and prevention of its cleavage by C5 convertase in serum [3]
